Assay [1] concerns the target avi-β1AR-E (turkey β1-adrenergic receptor, β1AR-E construct with N-terminal biotinylated avi-tag) (turkey), P07700. Kind of assay: BLI; biotinylated avi-β1AR in LMNG on streptavidin biosensors, mini-G in solution; 500 μM isoprenaline; 20 mM TrisHCl pH 8.0, 150 mM NaCl, 15 mM MgCl2, 0.02% LMNG, 0.1% BSA; 25 °C; single point measurements, monophasic 1:1 local fit, n = 3. (In general: BLI is a label-free optical method that tracks binding on a fibre tip over time.)

Assay [2] addresses avi-β1AR-E (turkey β1-adrenergic receptor, minimally thermostabilised construct with E130 restored, N-terminal biotinylated avi-tag) (turkey), P07700. Kind of assay: BLI; biotinylated avi-tagged receptor in LMNG immobilised on streptavidin biosensors; 500 μM isoprenaline; mini-G in solution at a single concentration (0.125-4 μM); 20 mM TrisHCl pH 8.0, 150 mM NaCl, 15 mM MgCl2, 0.02% LMNG, 0.1% BSA; 25 °C; 1:1 monophasic local partial fit; one of n = 3 tips.

Assay [3] addresses avi-β1AR-W (turkey β1-adrenergic receptor β1AR-MetΔ5, thermostabilised with E130W, N-terminal biotinylated avi-tag) (turkey), P07700. Described as above.

“And” between values parts separate entries of the source, which are not always exact repeats. Equal entries are not always repeated.

In general, Kd refers to the constant that tells how readily two partners part at equilibrium. A word on the koff: it is the rate constant with which the complex falls apart. As a reminder, the kon is the second-order rate constant of association.

Chain of avi-β1AR-W (turkey β1-adrenergic receptor β1AR-MetΔ5, thermostabilised with E130W, N-terminal biotinylated avi-tag) (turkey), P07700 (P07700 other isoform, or with tags, fused parts or gaps E130W): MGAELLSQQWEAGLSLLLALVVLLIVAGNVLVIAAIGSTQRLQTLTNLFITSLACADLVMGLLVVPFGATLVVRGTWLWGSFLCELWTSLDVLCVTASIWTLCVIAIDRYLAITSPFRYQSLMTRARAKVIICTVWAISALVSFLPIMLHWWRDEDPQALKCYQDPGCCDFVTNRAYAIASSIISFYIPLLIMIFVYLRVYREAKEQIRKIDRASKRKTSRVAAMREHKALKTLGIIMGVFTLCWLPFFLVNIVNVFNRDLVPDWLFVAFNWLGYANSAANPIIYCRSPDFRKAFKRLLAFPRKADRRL
Chain of avi-β1AR-E (turkey β1-adrenergic receptor, β1AR-E construct with N-terminal biotinylated avi-tag) (turkey), P07700 (P07700 other isoform, or with tags, fused parts or gaps): as the sequence (P07700 other isoform, or with tags, fused parts or gaps E130W) above, with W100E counted along it
Chain of avi-β1AR-E (turkey β1-adrenergic receptor, minimally thermostabilised construct with E130 restored, N-terminal biotinylated avi-tag) (turkey), P07700 (P07700 other isoform, or with tags, fused parts or gaps): as the sequence (P07700 other isoform, or with tags, fused parts or gaps E130W) above, with W100E counted along it

B1: mini-Go1 R12 (domain or fragment)
chain: IEKNLKEDGISAAKDVKLLLLGADNSGKSTIVKQMKIIHTTGIVETHFTFKNLHFRLFDVGGQRSERKKWIHCFEDVTAIIFCVDLSDYNRMHESLMLFDSICNNKFFIDTSIILFLNKKDLFGEKIKKSPLTICFPEYTGPNTYEDAAAYIQAQFESKNRSPNKEIYCHMTCATDTNNAQVIFDAVTDIIIANNLRGCGLY
modifications: not checked
In assay [1], B1 yielded a Kd of 1.34 µM and a fold reduction of kon against mini-Gs of 50 fold. For the same molecule, in assay [2], the Kd is 1.43 µM and 1.12 µM and 1.46 µM; the koff is 0.0042 s⁻¹ and 0.00358 s⁻¹ and 0.00401 s⁻¹; the kon was 2950 M⁻¹ s⁻¹ and 3200 M⁻¹ s⁻¹ and 2740 M⁻¹ s⁻¹. Besides, in assay [3], the Kd is 8.71 µM and 8.11 µM and 5.42 µM; the koff was 0.0102 s⁻¹ and 0.00894 s⁻¹ and 0.00914 s⁻¹; the kon is 1170 M⁻¹ s⁻¹ and 1100 M⁻¹ s⁻¹ and 1690 M⁻¹ s⁻¹.

B2: mini-Gs 393 with C96A (domain or fragment)
chain: GIEKQLQKDKQVYRATHRLLLLGADNSGKSTIVKQMRIYHGGSGGSGGTSGIFETKFQVDKVNFHMFDVGGQRDERRKWIQAFNDVTAIIFVVDSSDYNRLQEALNDFKSIWNNRWLRTISVILFLNKQDLLAEKVLAGKSKIEDYFPEFARYTTPEDATPEPGEDPRVTRAKYFIRDEFLRISTASGDGRHYCYPHFTCAVDTENARRIFNDCRDIIQRMHLRQYELL
modifications: not checked
The molecule B2 returned a Kd in assay [1] of 0.047 µM.

Source of the values: publication PMC10864275, “Binding kinetics drive G protein subtype selectivity at the β1-adrenergic receptor” (Nature Communications, 2024).
